Experiment [1] has as its target synthetic, predominantly monomeric amyloid-β (M-Aβ) (human) (UniProt P05067). Put plainly: SPR; BIAcore 3000, CM-4 chips; monomeric Aβ, aggregated Aβ (100 fmol Aβ42/mm^2) or iC3b amine-coupled; I domains injected at 20-10000 nM in 150 mM NaCl, 1 mM MgCl2, 5.0 mM HEPES (pH 7.4); contact 180 s, dissociation 400 s; two-dimensional distribution of 1:1 interactions fitted with EVILFIT.

The target of experiment [2] is in vitro-aggregated amyloid-β (A-Aβ) (human) (UniProt P05067). Described as above.

Experimental findings from paper PMC10858199, “Amyloid-β aggregates activate peripheral monocytes in mild cognitive impairment” (Nature Communications, 2024) are described below.

In turn, “CR3 I domain, stabilized in the activated conformation (domain or fragment)” registered a Kd in experiment [1] of 79 µM.

In experiment [2], “CR4 I domain, stabilized in the activated conformation (from UniProt P20702 20-1101) (domain or fragment)” returned a KD, high-affinity class of binding sites of 0.016 nM; a koff, high-affinity class of binding sites of 0.00025 s⁻¹; a koff, moderate-affinity class of binding sites of 5e-05 s⁻¹.

As usually defined, the Kd is the equilibrium constant for the complex coming apart.
